Assay results reported in patent publication US20070054848.

Molecular target: recombinant full-length p21 (1-164 in SEQ ID NO: 23)
Sequence (chain, as listed by the source): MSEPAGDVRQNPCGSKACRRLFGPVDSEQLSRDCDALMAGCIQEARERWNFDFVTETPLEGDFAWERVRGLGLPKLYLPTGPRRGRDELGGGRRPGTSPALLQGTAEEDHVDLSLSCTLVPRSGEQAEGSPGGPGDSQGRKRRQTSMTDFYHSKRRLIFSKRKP

B1: Rho kinase fragment (aa 1-543, Upstate Biotechnology) (protein)
chain: MSRPPPTGKMPGAPETAPGDGAGASRQRKLEALIRDPRSPINVESLLDGLNSLVLDLDFPALRKNKNIDNFLNRYEKIVKKIKGLQMKAEDYDVVKVIGRGAFGEVQLVRHKASQKVYAMKLLSKFEMIKRSDSAFFWEERDIMAFANSPWVVQLFYAFQDDRYLYMVMEYMPGGDLVNLMSNYDVPEKWAKFYTAEVVLALDAIHSMGLIHRDVKPDNMLLDKHGHLKLADFGTCMKMDETGMVHCDTAVGTPDYISPEVLKSQGGDGFYGRECDWWSVGVFLYEMLVGDTPFYADSLVGTYSKIMDHKNSLCFPEDAEISKHAKNLICAFLTDREVRLGRNGVEEIRQHPFFKNDQWHWDNIRETAAPVVPELSSDIDSSNFDDIEDDKGDVETFPIPKAFVGNQLPFIGFTYYRENLLLSDSPSCRENDSIQSRKNEESQEIQKKLYTLEEHLSNEMQAKEELEQKCKSVNTRLEKTAKELEEEITLRKSVESALRQLEREKALLQHKNAEYQRKADHEADKKRNLENDVNSLKDQLEDL
- Rho-kinase activity toward S6 kinase substrate peptide ([γ-32P] ATP, scintillation counting): the estimated IC50 value was 1.43 nM
